Measured values taken from patent US20140212436A1.
Like-named read-outs stand apart in the source and are kept apart here.

Tests used:
FcγRIIIaF (human) = FcγRIIIaF (human) (UniProt P08637); experiment: Biacore
FcγRIIaR (human) = FcγRIIaR (human) (UniProt P12318); experiment: Biacore
human FcγRI (human) [1] = target: human FcγRI (human) (UniProt P12314); experiment: Biacore
[2] = target: human V158 FcγRIIIa (human) (UniProt P08637); experiment: Biacore
[3] = target: recombinant human FcγRIIb protein (human) (UniProt P31994); experiment: Biacore
[4] = target: XENP12704, anti-IgE antibody containing human C3d fused to the C-terminus of Ckappa (human) (UniProt P01834); experiment: ELISA, CR2-Fc coated; the concentration is that of XENP12704
[5] = target: human H131 FcγRIIa (human) (UniProt P12318); experiment: Biacore
human FcγRI (human) [6] = target: human FcγRI (human) (UniProt P12314); experiment: Biacore; remark: listed apart in the source
[7] = target: human V158 FcγRIIIa (human) (UniProt P08637); experiment: Biacore; remark: listed apart in the source
[8] = target: recombinant human FcγRIIb protein (human) (UniProt P31994); experiment: Biacore; remark: listed apart in the source
[9] = target: human H131 FcγRIIa (human) (UniProt P12318); experiment: Biacore; remark: listed apart in the source
[10] = target: IgE (from a human IgE ELISA kit, Bethyl Laboratories) (human) (UniProt P01854); experiment: sandwich ELISA, antibody coated as capture; the concentration is that of IgE
[11] = target: recombinant human FcγRIIb protein (human) (UniProt P31994); experiment: Biacore SPR, antibody captured on protein A/G, FcγRIIb injected

Sequence of FcγRIIIaF (human) (P08637 17-208 limits assumed): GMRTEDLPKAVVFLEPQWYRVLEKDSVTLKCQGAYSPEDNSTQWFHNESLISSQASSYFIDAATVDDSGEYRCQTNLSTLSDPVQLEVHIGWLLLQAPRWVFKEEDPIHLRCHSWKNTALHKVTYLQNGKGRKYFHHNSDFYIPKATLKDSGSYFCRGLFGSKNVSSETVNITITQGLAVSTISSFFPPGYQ
Sequence of recombinant human FcγRIIb protein (human) (P31994 46-217 limits assumed): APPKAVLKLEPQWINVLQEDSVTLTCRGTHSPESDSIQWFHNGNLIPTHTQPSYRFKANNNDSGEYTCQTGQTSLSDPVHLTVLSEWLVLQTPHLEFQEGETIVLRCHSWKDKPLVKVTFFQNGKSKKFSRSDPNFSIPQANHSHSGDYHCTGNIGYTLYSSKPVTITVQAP
Sequence of human H131 FcγRIIa (human) (P12318 other isoform, or with tags, fused parts or gaps limits assumed): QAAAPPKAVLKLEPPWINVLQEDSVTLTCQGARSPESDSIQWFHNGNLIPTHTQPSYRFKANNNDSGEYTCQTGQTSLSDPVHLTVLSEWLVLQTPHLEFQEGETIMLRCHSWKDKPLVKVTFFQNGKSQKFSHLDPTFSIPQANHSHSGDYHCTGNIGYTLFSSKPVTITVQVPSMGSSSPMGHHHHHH
Sequence of human FcγRI (human) (P12314 16-288 limits assumed): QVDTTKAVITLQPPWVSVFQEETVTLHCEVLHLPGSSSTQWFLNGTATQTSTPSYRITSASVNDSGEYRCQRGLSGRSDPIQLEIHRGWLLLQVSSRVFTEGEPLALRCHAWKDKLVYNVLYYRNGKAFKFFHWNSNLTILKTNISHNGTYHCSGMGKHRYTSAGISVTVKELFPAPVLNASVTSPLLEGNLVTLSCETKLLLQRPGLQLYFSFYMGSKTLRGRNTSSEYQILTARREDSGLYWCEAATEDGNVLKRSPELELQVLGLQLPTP
Sequence of human V158 FcγRIIIa (human) (P08637 other isoform, or with tags, fused parts or gaps limits assumed): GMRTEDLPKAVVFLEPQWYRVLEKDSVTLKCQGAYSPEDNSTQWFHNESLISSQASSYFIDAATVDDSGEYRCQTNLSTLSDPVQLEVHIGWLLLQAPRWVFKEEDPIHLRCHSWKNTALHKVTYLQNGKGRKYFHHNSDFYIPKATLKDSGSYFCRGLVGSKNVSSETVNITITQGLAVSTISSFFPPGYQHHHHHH
Sequence of FcγRIIaR (human) (P12318 34-217 H167R limits assumed): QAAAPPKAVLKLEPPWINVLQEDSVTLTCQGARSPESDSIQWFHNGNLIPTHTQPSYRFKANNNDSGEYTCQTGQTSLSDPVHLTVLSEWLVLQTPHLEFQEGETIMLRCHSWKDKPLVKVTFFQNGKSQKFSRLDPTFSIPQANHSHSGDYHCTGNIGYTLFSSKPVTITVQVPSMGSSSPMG
Sequence of IgE (from a human IgE ELISA kit, Bethyl Laboratories) (human) (P01854 other isoform, or with tags, fused parts or gaps): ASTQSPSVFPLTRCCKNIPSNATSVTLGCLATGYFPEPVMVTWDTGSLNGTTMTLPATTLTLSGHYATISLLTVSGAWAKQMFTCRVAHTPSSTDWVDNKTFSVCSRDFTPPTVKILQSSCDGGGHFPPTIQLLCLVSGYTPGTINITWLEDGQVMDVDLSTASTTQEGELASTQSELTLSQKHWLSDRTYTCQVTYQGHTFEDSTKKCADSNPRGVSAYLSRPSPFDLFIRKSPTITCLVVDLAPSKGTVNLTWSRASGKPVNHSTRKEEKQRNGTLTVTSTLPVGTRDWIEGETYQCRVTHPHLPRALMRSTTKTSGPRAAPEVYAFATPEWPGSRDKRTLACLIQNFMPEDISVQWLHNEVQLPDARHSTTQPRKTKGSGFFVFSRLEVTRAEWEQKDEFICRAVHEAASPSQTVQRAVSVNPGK
Sequence of XENP12561 (hSCR1-2 Fc fusion) (P20023 21-148 limits assumed): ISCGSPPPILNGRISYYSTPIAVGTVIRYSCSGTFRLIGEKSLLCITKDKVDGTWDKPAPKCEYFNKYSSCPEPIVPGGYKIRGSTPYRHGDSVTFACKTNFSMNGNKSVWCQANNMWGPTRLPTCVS
Sequence of XENP12562 (hSCR1-4 Fc fusion) (P20023 21-273 limits assumed): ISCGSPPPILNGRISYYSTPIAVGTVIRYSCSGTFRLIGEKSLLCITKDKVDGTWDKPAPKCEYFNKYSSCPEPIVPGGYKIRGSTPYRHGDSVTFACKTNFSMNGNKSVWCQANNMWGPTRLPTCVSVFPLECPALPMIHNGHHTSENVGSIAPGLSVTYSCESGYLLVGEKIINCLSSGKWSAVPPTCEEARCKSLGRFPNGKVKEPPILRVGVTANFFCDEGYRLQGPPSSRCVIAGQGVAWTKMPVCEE

Substance | Kd (FcγRIIIaF (human)) [nM] | Kd (FcγRIIaR (human)) [nM] | Kd (human FcγRI (human) [1]) [nM] | Kd [2] [nM] | Kd [3] [nM] | Kd [5] [nM] | Kd (human FcγRI (human) [6]) [nM] | Kd [8] [nM] | Kd [9] [nM] | Fold (FcγRIIaR (human)) | Fold (human FcγRI (human) [1]) | Fold [2] | Fold [3] | Fold [5] | other results
L328F (antibody) | 5110 | 166 | 0.452 | 58400 | 541 | – | – | – | – | – | – | – | – | – | –
XENP12562 (hSCR1-4 Fc fusion) (from UniProt P20023 21-273) | – | – | – | – | – | – | – | – | – | – | – | – | – | – | EC50 (read off the curve) [4]: 0.003 µg/mL
XENP12561 (hSCR1-2 Fc fusion) (from UniProt P20023 21-148) | – | – | – | – | – | – | – | – | – | – | – | – | – | – | EC50 (read off the curve) [4]: 0.02 µg/mL
anti-CD19 antibody HuAM4G7, IgG1 Fc variant S239D/I332E | 28.2 | 68.6 | 0.0374 | – | 101 | 163 | 0.14 | 88 | 220 | – | – | – | – | – | Kd [7]: 6.8 nM
S239D (antibody) | 214 | 230 | 0.0934 | 23.5 | 408 | 590 | – | – | – | 3.73 | 3.53 | 8.14 | 3.6 | – | Fold (FcγRIIIaF (human)): 6.32
S267E (antibody) | – | 29.1 | 0.117 | 503 | 71.9 | 859 | 0.26 | 60 | 960 | 29.5 | 2.81 | 0.381 | 20.4 | 0.753 | Fold (human FcγRI (human) [6]): 1.1; Fold [7]: 0.29; Kd [7]: 690 nM; Fold [8]: 30; Fold [9]: 0.89
anti-CD19 antibody HuAM4G7, IgG1 Fc variant S239D/S267E | 516 | 7.16 | 0.0142 | 51.2 | 13.3 | 510 | 0.17 | 12 | 700 | 120 | 23.2 | 3.74 | 111 | 1.27 | Fold (FcγRIIIaF (human)): 2.62; Fold (human FcγRI (human) [6]): 1.6; Fold [7]: 3; Kd [7]: 62 nM; Fold [8]: 150; Fold [9]: 1.2
anti-CD19 antibody HuAM4G7, WT (native) IgG1 Fc (antibody; other documents disagree on this pair) | 1350 | – | – | – | – | – | – | – | – | – | – | – | – | – | Fold (FcγRIIIaF (human)): 1
MaE11_IgG1_G236R/L328R (antibody) | – | – | – | – | – | – | – | – | – | – | – | – | – | – | EC50 (read off the curve) [10]: 0.05 µg/mL
anti-CD19 antibody HuAM4G7, IgG1 Fc variant G236D/S267E | – | – | 3.71 | 579 | 26.6 | 2730 | 3.2 | 25 | 2200 | – | – | – | – | – | –
anti-CD19 antibody HuAM4G7, IgG1 Fc variant S267E/L328F | – | 3.12 | 0.22 | 5040 | 6.06 | 923 | 0.23 | 4.2 | 880 | 275 | 1.5 | 0.038 | 242 | 0.7 | Fold (human FcγRI (human) [6]): 1.2; Fold [8]: 429; Fold [9]: 0.97
anti-CD19 antibody HuAM4G7, WT (native) IgG1 Fc | – | 859 | 0.329 | 191 | 1470 | 646 | 0.28 | – | 850 | 1 | – | – | – | – | Kd [11]: 1800 nM; Fold (human FcγRI (human) [6]): 1; Fold [7]: 1; Kd [7]: 200 nM; Fold [8]: 1; Fold [9]: 1
L235I (antibody) | – | 1290 | 16.7 | 212 | 1620 | 3580 | – | – | – | 0.666 | 0.0197 | 0.903 | 0.908 | 0.181 | –
S239E (antibody) | – | 1250 | 0.2 | 54.8 | 1830 | 1320 | – | – | – | 0.688 | 1.65 | 3.49 | 0.803 | 0.49 | –
